Measurements published in the RNAGym collection of RNA variant scans (doi:10.1021/acssynbio.7b00057).

B1: Pistol ribozyme (parent)
chain: GGGUCGUUGUUCCAUAAUCGCGUGGAUAUGGCACGCAAGUUUCUACCGGGCACCGUAAAUGUCCGACUGGAGCCGUUCGGGCGGCUAUAAACAGACCUCAGGCCCGAAGCGUGGCGGCACCUGCCGCCGGUGGUAAAAAAGAUCGGAAGAGCACACGUCU

Variants of: B1
Assay: aptazyme ON/OFF ratio, guanine; higher = stronger switching; co-transcriptional cleavage with and without guanine

| Variant | aptazyme ON/OFF ratio |
| --- | --- |
| U7C U8A C13U | 1.71 |
| U7C G9U U10G C13G | 1.06 |
| U7C G9U U10G C13U | 1.37 |
| U7C G9U U10G C13A | 1.25 |
| U7C G9U U10C C12A C13U | 1.09 |
| U7C G9U U10C C12A C13A | 1.09 |
| U7C G9U U10C C12A C13G | 1.09 |
| U7C G9U U10C U11C C12G C13G | 1.03 |
| U7C G9U U10C U11C C12G C13U | 1.02 |
| U7C G9U U10C U11C C12G C13A | 1.03 |
| U7C U8A G9A U10C U11C C12G C13G | 1.17 |
| U7C U8A G9A U10C U11C C12G C13U | 1.07 |
| U7C U8A G9A U10C U11C C12G C13A | 1.13 |
| U7C G9U U10G U11A C12U C13G | 1.1 |
| U7C G9U U10G U11A C12U C13U | 1.1 |
| U7C G9U U10G U11A C12U C13A | 1.19 |
| U7C U8A G9A U10A U11G C12G C13A | 1.26 |
| U7C U8A G9A U10A U11G C12G C13G | 1.28 |
| U7C U8A G9A U10A U11G C12G C13U | 1.18 |
| U7C U8A G9A U10A C12U C13U | 1.28 |
| U7C U8A G9A U10A C12U C13A | 1.15 |

| Variant | aptazyme ON/OFF ratio |
| --- | --- |
| U7C U8A G9A U10A C12U C13G | 1.14 |
| U7C U8A G9A U10A U11G C13U | 1.25 |
| U7C U8A G9A U10A U11G C13G | 1.02 |
| U7C U8A G9A U10A U11G C13A | 1.16 |
| U7C U8A G9A U10C C12G C13A | 1.13 |
| U7C U8A G9A U10C C12G C13G | 1.1 |
| U7C U8A G9A U10C C12G C13U | 1.19 |
| U7C U8A G9A U10A U11G | 1.31 |
| U7C U8A G9A U10A U11A | 1.22 |
| U7C U8A G9A U10A U11C | 1.02 |
| U7C G9U U10C U11C C12A C13U | 1.01 |
| U7C G9U U10C U11C C12A C13A | 1.04 |
| U7C G9U U10C U11C C12A C13G | 1.08 |
| U7C G9U U10G U11C C12U | 1.14 |
| U7C G9U U10G U11C C12A | 1.2 |
| U7C G9U U10G U11C C12G | 1.09 |
| U7C U8A G9A U10A U11A C12G C13A | 1.2 |
| U7C U8A G9A U10A U11A C12G C13U | 1.22 |
| U7C U8A G9A U10A U11A C12G C13G | 1.28 |
| U7C U8A G9A C13G | 1.06 |
| U7C U8A G9A C13U | 1.18 |

| Variant | aptazyme ON/OFF ratio |
| --- | --- |
| U7C U8A G9A C13A | 1.15 |
| U7C U8A G9A U10A U11A C12U C13U | 1.13 |
| U7C U8A G9A U10A U11A C12U C13A | 1.2 |
| U7C U8A G9A U10A U11A C12U C13G | 1.17 |
| U7C U8A C12G | 1.37 |
| U7C U8A C12U | 1.68 |
| U7C U8A C12A | 1.3 |
| U7C G9U U10C U11A C12G | 1.05 |
| U7C G9U U10C U11A C12A | 1.25 |
| U7C G9U U10C U11A C12U | 1.19 |
| U7C G9U U11G C12U C13A | 1.17 |
| U7C G9U U11G C12U C13U | 1.3 |
| U7C G9U U11G C12U C13G | 1.11 |
| U7C G9U U10C U11A C13G | 1.04 |
| U7C G9U U10C U11A C13U | 1.16 |
| U7C G9U U10C U11A C13A | 1.1 |
| U7C G9U U10C U11C C13G | 1.06 |
| U7C G9U U10C U11C C13U | 1 |
| U7C G9U U10C U11C C13A | 1 |
| U7C U8A G9A U10C U11A | 1.23 |
| U7C U8A G9A U10C U11G | 1.32 |

| Variant | aptazyme ON/OFF ratio |
| --- | --- |
| U7C U8A G9A U10C U11C | 1.02 |
| U7C G9U U11C C12A C13U | 1.14 |
| U7C G9U U11C C12A C13A | 1.15 |
| U7C G9U U11C C12A C13G | 1.07 |
| U7C G9U U10G U11G C12U C13G | 1.13 |
| U7C G9U U10G U11G C12U C13U | 1.11 |
| U7C G9U U10G U11G C12U C13A | 1.07 |
| U7C G9U U10C U11C C12G | 1.02 |
| U7C G9U U10C U11C C12A | 1.06 |
| U7C G9U U10C U11C C12U | 1.02 |
| U7C U8A G9A U10A U11C C12A C13U | 1.16 |
| U7C U8A G9A U10A U11C C12A C13A | 1.17 |
| U7C U8A G9A U10A U11C C12A C13G | 1.12 |
| U7C U8A G9A U10C U11A C12U C13A | 1.17 |
| U7C U8A G9A U10C U11A C12U C13U | 1.11 |
| U7C U8A G9A U10C U11A C12U C13G | 1.15 |
| U7C U8A G9A C12G C13G | 1.22 |
| U7C U8A G9A C12G C13A | 1.17 |
| U7C U8A G9A C12G C13U | 1.17 |
| U7C U8A G9A U10C C12A C13A | 1.14 |
